± gives the half width of the 95% confidence interval.
Columns and labels:
[1] = folding stability dG unfold from chymotrypsin proteolysis; higher = more stable
Protocol: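 Folding stability of de novo designed mini-proteins (<80 aa, no Cys; designed by TrROS, TrMRF, ProteinMPNN and the joint model) was measured by cDNA display proteolysis with trypsin and chymotrypsin. Each protease was used at 11 concentrations in a threefold dilution series plus a no-protease condition. K50 was inferred by Bayesian fitting of sequencing counts, and dG unfold was derived against a sequence-predicted unfolded-state K50 (Tsuboyama et al. method). Sequences shown include variable-length N-terminal GS-type padding (SAGGSAGG...) inside a display construct carrying a PA tag. Rows were kept only if the AF2 dimer inter-PAE was >15, to exclude likely homo-oligomers.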

[2] = folding stability dG unfold (combined trypsin and chymotrypsin); higher = more stable
Outline: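 Unfolding free energy was derived, per protease or combined, by relating Bayesian-fitted K50 values from sequencing counts to a sequence-predicted unfolded-state K50 and a shared folded-state K50. The underlying digests exposed cysteine-free mini-proteins under 80 residues, in a PA-tagged cDNA display construct, to trypsin and chymotrypsin at 11 threefold-diluted concentrations and to a no-protease condition. A filter kept only designs with AlphaFold2 dimer inter-PAE above 15.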

Sequence	folding stability dG unfold [1] [kcal/mol]	folding stability dG unfold [2] [kcal/mol]
SAGGNLRIRIEMENKDGNKRKIPIPEEEFNRIKESLKNGKPITPEPASWISDYARRNGYDVKIVDIYSAGGS [r8_159_TrROS]	-0.101 ± 0.36	-0.35 ± 0.33
SAGGSAGGDKVTIESFHPENWYFRIRYPGNGKPISFPIKSVDELLDKIEPSGLPVEIEWMPPEESAGGSAGG [r6_33_TrROS]	0.233 ± 0.26	-0.0248 ± 0.32
SAGAVSTFENSNPSISLEELKEKIEEKLGIELVELKKVEDVPGGLKYEIVVPKIKGEKPFSAEEIAKLLSAG [r5_550_JUSTAS]	-0.0356 ± 0.5	-0.434 ± 0.56
SAGGSAGGSAGGMRITIDDWDPDEGPYRVKVTNPDNNKKKTMPYENLEELAKEGPVEIHRSAGGSAGGSAGG [r7_452_TrROS]	0.368 ± 0.18	-0.143 ± 0.13
SAGGSAGGSAGGSKVPPGAKITVERHDGGYRTVEIRPPNGKPVEIMMPEDDADEIADQISAGGSAGGSAGGS [r4_16_TrROS]	-1.26 ± 0.82	< -1
SAGGSAGGSAMPERRAAEAAAAPPPVPKVVITSPGSEEEARRIEEELRAAPGVEEVTVTVVPRLSAGGSAGG [r6_285_JUSTAS]	0.804 ± 0.045	0.0774 ± 0.16
SSTSMSTEPNRTVTTTTEKGGRSTVTTTTTTTFTASGETTTTTPVTTTTPPPPLGVYKDPAGVTRTRPLLSA [r9_456_JUSTAS]	0.339 ± 0.079	-0.012 ± 0.072
SAGGSAGGSAGGPNWRIITHEIPIKDGEIEINLPEGIKPQSIERNPDDGYIKVSIVIPLSAGGSAGGSAGGS [r10_906_TrROS]	-0.259 ± 0.14	-0.54 ± 0.15
SIIIPPKESAEEVLNEIKELLPPGRKYKITVFNPENGRMHEADFDPKKGNIEVEPHPFPNGPPFLMIERKSA [r9_1059_TrROS]	-0.387 ± 0.63	-0.42 ± 0.49
SAGGSAGGNTIELPLPNGMELEIPVQKNPEGYYQVNIERYDPDDGKKKEIPFTMPAEDIKDFLKSAGGSAGG [r6_859_TrROS]	-0.205 ± 0.29	-0.785 ± 0.36
MTTETLEEEEIPEEGIRIETVRTTDASGKPSTETVVTYEEVPLEPENTAPPVKFDDKGKRYNPGIGLEGLDS [r1_270_JUSTAS]	-0.664 ± 0.24	< -1
MPSVTLPVTLVLDTRRPDGRPLTPEQVRALAEAAVRELAEATGVDVEADVTVTPLGPEGRAVVDVVVTVRPS [r1_231_TrMRF]	0.746 ± 0.1	0.201 ± 0.14
SAGGSSAEELAEALKKKLEELGLEIKELELKVKKVKVEEKPKPKVELKEEKVEVKEKKFYSEEEKKSAGGSA [r2_384_TrROS_Hall]	-0.485 ± 0.69	< -1
SAGGSAGGSAGGMPVPRRLEIVVEPEYTEEEIEKIKKELIENGNPEIEEVVVVLPPNLESAGGSAGGSAGGS [r10_233_JUSTAS]	0.285 ± 0.04	-0.385 ± 0.36
SAGEGSRSPGVVLHVTTPTEPLVVREPVAPDEDPEAVLERLAAEVRAALGPDTTVSGEVLSPAELARAASAG [r5_583_JUSTAS]	-0.465 ± 0.18	-0.738 ± 0.23
SAGGSEAAPGEKVTITTVTSSVLKTYETPTGTLETESSTSVTTTTVTVPAAAAAAAGVRYSPDPLLSAGGSA [r2_495_JUSTAS]	-0.348 ± 0.14	< -1
NIRFPDGREIEIPPEPGEEYEIMLPNGPEIKIKKIKYENGEPTIEIERKDGGKKEHEMPPNQPDQILDAIRS [r1_66_TrROS]	0.421 ± 0.051	0.0319 ± 0.29
SAMNVTLTKHPDGTYTVGATLPGYSPVSTQTIPSSVPSYTVTYRTPDEVLKVTYKDSGLTPERVPISRLSAG [r14_403_JUSTAS]	0.395 ± 0.053	-0.0343 ± 0.044
SAGPWKIEVEQYDPNGKKEEIEDPEDLLDLAKDLPPNRMVHIKIPNGRETIMFQNPDGNVFVLKIERPESAG [r5_506_TrROS]	-0.0396 ± 0.33	-0.374 ± 0.34
SAGGAIGPEEAERLAQEIADRLAAEFREAEPDVEVEVEAEVFPPEGVIRVRPRLPDGRLLAEVTFPVGSAGG [r13_247_TrMRF]	0.498 ± 0.041	0.0873 ± 0.067
SAGGFKIERERDPDNGIRKIEFRFPDNGYRVKATINPDNDKIHIWGPNPAIREALPELGITNVEVEPWSAGG [r13_511_TrROS]	-0.811 ± 0.78	< -1
SAGGSAGGSASLIVISPPGAPRTIPLEGLVEKGIPEREAAELLEKELGIEINLSEPGVIRAKSAGGSAGGSA [r18_7_JUSTAS]	0.249 ± 0.044	-0.186 ± 0.12
SAGGSYMVKVEWRNNNKEMEMTHPFDDPEDALNFAHDLLPNGMELDIEVFDPKEGEPIGTVPFRVDSAGGSA [r2_390_TrROS]	-0.536 ± 0.26	< -1
SAMDLSTLPPSTSVTPSTSSLPGNLSRSTYTLTTRDPETGALTVTTVTTYTDPSSSSTTVTPSTTLLPASAG [r14_307_JUSTAS]	0.34 ± 0.22	0.00104 ± 0.15

Source: the supplement of paper PMC12764529
